Legend:
[1] = target: T1, wild type mouse βKlotho (mouse, UniProt Q99N32); experiment: cell-based or functional assay
T1 sequence: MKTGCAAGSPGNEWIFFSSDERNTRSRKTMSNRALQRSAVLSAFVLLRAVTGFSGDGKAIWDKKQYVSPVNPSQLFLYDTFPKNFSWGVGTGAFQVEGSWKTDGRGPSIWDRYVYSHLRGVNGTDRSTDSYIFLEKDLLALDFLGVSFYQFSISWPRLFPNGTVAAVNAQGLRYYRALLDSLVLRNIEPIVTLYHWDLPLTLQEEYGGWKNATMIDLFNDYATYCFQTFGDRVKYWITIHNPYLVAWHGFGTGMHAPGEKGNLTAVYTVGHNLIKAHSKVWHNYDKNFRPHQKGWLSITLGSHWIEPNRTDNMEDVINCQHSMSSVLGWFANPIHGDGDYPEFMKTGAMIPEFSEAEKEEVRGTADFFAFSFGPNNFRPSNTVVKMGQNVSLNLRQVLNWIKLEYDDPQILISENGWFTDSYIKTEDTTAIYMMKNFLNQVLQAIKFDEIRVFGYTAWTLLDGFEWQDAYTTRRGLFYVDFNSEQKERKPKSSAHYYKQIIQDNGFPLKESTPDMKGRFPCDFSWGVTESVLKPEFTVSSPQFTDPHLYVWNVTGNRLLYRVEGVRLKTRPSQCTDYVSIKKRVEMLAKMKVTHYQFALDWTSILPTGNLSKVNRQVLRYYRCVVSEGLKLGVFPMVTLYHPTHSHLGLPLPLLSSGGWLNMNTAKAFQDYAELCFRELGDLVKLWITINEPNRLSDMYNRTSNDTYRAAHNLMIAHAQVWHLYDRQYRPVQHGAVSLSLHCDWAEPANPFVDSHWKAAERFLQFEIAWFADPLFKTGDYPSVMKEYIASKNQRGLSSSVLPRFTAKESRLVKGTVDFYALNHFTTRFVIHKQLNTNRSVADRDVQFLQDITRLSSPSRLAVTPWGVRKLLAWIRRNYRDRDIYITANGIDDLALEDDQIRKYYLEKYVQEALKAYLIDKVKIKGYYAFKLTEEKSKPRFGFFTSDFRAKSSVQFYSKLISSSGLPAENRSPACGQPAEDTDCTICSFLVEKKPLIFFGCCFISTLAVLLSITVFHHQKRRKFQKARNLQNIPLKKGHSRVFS

[2] = target: human βKlotho (human, UniProt Q86Z14); experiment: cell-based or functional assay

B1: FGF21 protein of SEQ ID NO: 1 (ligand)
chain: HPIPDSSPLLQFGGQVRQRYLYTDDAQQTECHLEIREDGTVGCAADQSPESLLQLKALKPGVIQILGVKTSRFLCQRPDGALYGSLHFDPEACSFREDLLEDGYNVYQSEAHGLPLHLPGDKSPHRKPAPRGPARFLPLPGLPPALPEPPGILAPQPPDVGSSDPLRLVEPSQLLSPSFLG
What does the source list for B1?
glucose uptake (2-deoxy-D-(14C) glucose) in 3T3-L1-βKlotho fibroblasts, in vitro potency (EC50) [1]: 0.026 nM; SRE driven luciferase in 293-βKlotho-SRE luc cells, in vitro potency (EC50) [2]: 0.25 nM

Reference: US20150141335A1, “THERAPEUTIC USES OF FIBROBLAST GROWTH FACTOR 21 PROTEINS” (Eli Lilly and Company, published 2015)
